Results on 75 sequences are retold here after the supplement of paper PMC7877785.

The series in a line: self-splicing fitness, log relative to wild type (ln ratio); higher = more splicing; Tetrahymena group I intron in knt gene, E. coli kanamycin selection, DiMSum; sequences stand for … in CUCUCU…GGAGGGAAAAGUUAUCAGGCAUGCACCUGGUAGCUAGUCUUUAAACCAAUAGAUUGCAUCGGUUUAAAAGGCAAGACCGUCAAAUUGCGGGAAAGGGGUCAACAGCCGUUCAGUACCAAGUCUCAGGGGAAACUUUGAGAUGGCCUUGCAAAGGGUAUGGUAAUAAGCUGACGGACAUGGUCCUAACCACGCAGCCAAGUCCUAAGUCAACAGAUCUUCUGUUGAUAUGGAUGCAGUUCACAGACUAAAUGUCGGUCGGGGAAGAUGUAUUCUUCUCAUAAGAUAUAGUCGGACCUCUCCUUAAUGGGAGCUAGCGGAUGAAGUGAUGCAACACUGGAGCCGCUGGGAACUAAUUUGUAUGCGAAAGUAUAUUGAUUAGUUUUGGAGUACUCGUGGUCG
In a few lines: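 Library with all eight P1ex-region intron nucleotides randomised, intron inside the knt kanamycin-resistance gene on pET-22b(+), in E. coli BL21(DE3). Cells grew overnight at 37°C or 30°C on LB agar with or without 25 μg/mL kanamycin (plus 100 μg/mL carbenicillin, 50 μM IPTG, 0.2% rhamnose), in six replicate transformations. Pooled colonies were amplicon-sequenced on Illumina HiSeq 2500. DiMSum fitness is the error-weighted combination of wild-type-normalised replicate fold changes, kanamycin versus none.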

± gives the uncertainty stated by the source.

In the case of CCAGAGCAAUAUUACGAGUC, the “self-splicing fitness (ln)” value was -2 ± 0.19 (30 °C) and -1.69 ± 0.28 (37 °C). The matching figures for CCAGAGCAAUAUUACGAUAU: -2.51 ± 0.23 and -3.19 ± 0.37. For CCAGAGCAAUAUUACGAUGG the same measures were -4.18 ± 0.34 and -2.04 ± 0.27. As for CCAGAGCAAUAUUACGAUUC, the “self-splicing fitness (ln)” value was -4.06 ± 0.22 (30 °C) and -2.67 ± 0.21 (37 °C). The matching figures for CCAGAGCAAUAUUACGCAUA: -3.74 ± 0.23 and -2.48 ± 0.24.

Take CCAGAGCAAUAUUACGCCGC: the “self-splicing fitness (ln)” value (37 °C) was -0.773 ± 0.45.

As to CCAGAGCAAUAUUACGCGCU, the “self-splicing fitness (ln)” value reads like this: (30 °C) -2.97 ± 0.24; (37 °C) -1.89 ± 0.34. Take CCAGAGCAAUAUUACGCUUU: the “self-splicing fitness (ln)” value (30 °C) was -3.36 ± 0.27 and the “self-splicing fitness (ln)” value (37 °C) was -1.71 ± 0.17. For CCAGAGCAAUAUUACGGAAA the same measures were -3.62 ± 0.32 and -2.19 ± 0.27. In the case of CCAGAGCAAUAUUACGGAGU, the “self-splicing fitness (ln)” value (30 °C) is -3.32 ± 0.21 and the “self-splicing fitness (ln)” value (37 °C) was -3.21 ± 0.28. With CCAGAGCAAUAUUACGGGUU, the “self-splicing fitness (ln)” value is, setting by setting: (30 °C) -3.1 ± 0.23; (37 °C) -2.63 ± 0.26.

CCAGAGCAAUAUUACGUCUC: the “self-splicing fitness (ln)” value (30 °C) is -3.23 ± 0.15 and the “self-splicing fitness (ln)” value (37 °C) is -2.78 ± 0.23.

Take CCAGAGCAAUAUUACGUUCC: the “self-splicing fitness (ln)” value runs as follows: (30 °C) -4.16 ± 0.31; (37 °C) -2.6 ± 0.44. Turning to CCAGAGCAAUAUUACGUUUG, the “self-splicing fitness (ln)” value by setting is: (30 °C) -2.32 ± 0.11; (37 °C) -2.25 ± 0.17.

As for CCAUAGCAAUAUUACGAACA, the “self-splicing fitness (ln)” value is -3.77 ± 0.22 (30 °C) and -2.41 ± 0.25 (37 °C). For CCAUAGCAAUAUUACGACAG the same measures were -1.16 ± 0.092 and -0.413 ± 0.1.

Take CCAUAGCAAUAUUACGAGUU: the “self-splicing fitness (ln)” value was -3.76 ± 0.36 (30 °C) and -2.1 ± 0.31 (37 °C). For CCAUAGCAAUAUUACGAUUG, the “self-splicing fitness (ln)” value (30 °C) was -1.17 ± 0.07 and the “self-splicing fitness (ln)” value (37 °C) was -0.642 ± 0.083.

CCAUAGCAAUAUUACGCAAC: for the setting “30 °C”, the “self-splicing fitness (ln)” value was -2.54 ± 0.28. Regarding CCAUAGCAAUAUUACGCAGG, the “self-splicing fitness (ln)” value (30 °C) is -3.98 ± 0.28 and the “self-splicing fitness (ln)” value (37 °C) is -3.18 ± 0.35. For CCAUAGCAAUAUUACGCCCA the same measures were -1.9 ± 0.34 and -1.86 ± 0.35. For CCAUAGCAAUAUUACGCCGG the same measures were -2.5 ± 0.21 and -3.15 ± 0.47.

For the sequence CCAUAGCAAUAUUACGCGCA, the “self-splicing fitness (ln)” value (30 °C) was -2.65 ± 0.27 and the “self-splicing fitness (ln)” value (37 °C) is -2 ± 0.34.

With CCAUAGCAAUAUUACGCGGA, the “self-splicing fitness (ln)” value (30 °C) is -2.87 ± 0.16 and the “self-splicing fitness (ln)” value (37 °C) was -2.26 ± 0.17. Regarding CCAUAGCAAUAUUACGCUGA, the “self-splicing fitness (ln)” value is, setting by setting: (30 °C) -3.52 ± 0.41; (37 °C) -1.99 ± 0.28. The matching figures for CCAUAGCAAUAUUACGCUUA: -2.56 ± 0.26 and -3.5 ± 0.33.

In the case of CCAUAGCAAUAUUACGCUUG, the “self-splicing fitness (ln)” value is, setting by setting: (30 °C) -2.3 ± 0.093; (37 °C) -1.35 ± 0.091. As to CCAUAGCAAUAUUACGGUCA, the “self-splicing fitness (ln)” value is -3 ± 0.16 (30 °C) and -1.44 ± 0.2 (37 °C). The matching figures for CCAUAGCAAUAUUACGGUCC: -2.72 ± 0.26 and -1.99 ± 0.42. The matching figures for CCAUAGCAAUAUUACGUCUA: -4.41 ± 0.34 and -2.47 ± 0.18. As to CCAUAGCAAUAUUACGUGCU, the “self-splicing fitness (ln)” value reads like this: (30 °C) -3.88 ± 0.17; (37 °C) -2.1 ± 0.15. The matching figures for CCAUAGCAAUAUUACGUUCU: -3.64 ± 0.25 and -3.4 ± 0.32. For CCCAAGCAAUAUUACGAAGC the same measures were -3.21 ± 0.2 and -2.7 ± 0.24. For CCCAAGCAAUAUUACGAAUA, the “self-splicing fitness (ln)” value by setting is: (30 °C) -3.15 ± 0.27; (37 °C) -2.68 ± 0.25. With CCCAAGCAAUAUUACGACGU, the “self-splicing fitness (ln)” value runs as follows: (30 °C) -2.11 ± 0.13; (37 °C) -2.43 ± 0.2.

As to CCCAAGCAAUAUUACGACUU, the “self-splicing fitness (ln)” value reads like this: (30 °C) -4.21 ± 0.2; (37 °C) -2.9 ± 0.17.

Regarding CCCAAGCAAUAUUACGAUUU, the “self-splicing fitness (ln)” value (30 °C) was -2.62 ± 0.13 and the “self-splicing fitness (ln)” value (37 °C) is -2.21 ± 0.17. The matching figures for CCCAAGCAAUAUUACGCAGC: -3.93 ± 0.29 and -3.49 ± 0.34. For CCCAAGCAAUAUUACGCCAC the same measures were -2.48 ± 0.25 and -1.49 ± 0.22. For CCCAAGCAAUAUUACGGACG the same measures were -2.8 ± 0.13 and -2.17 ± 0.11.

Consider CCCAAGCAAUAUUACGGAGC, for which the “self-splicing fitness (ln)” value was -3.64 ± 0.18 (30 °C) and -2.21 ± 0.17 (37 °C).

For the sequence CCCAAGCAAUAUUACGGAUA, the “self-splicing fitness (ln)” value by setting is: (30 °C) -2.84 ± 0.22; (37 °C) -2.17 ± 0.21. For the sequence CCCAAGCAAUAUUACGGAUC, the “self-splicing fitness (ln)” value was -4.28 ± 0.23 (30 °C) and -2.45 ± 0.15 (37 °C). For CCCAAGCAAUAUUACGGAUU the same measures were -2.56 ± 0.12 and -2.71 ± 0.16. CCCAAGCAAUAUUACGGCGA: the “self-splicing fitness (ln)” value reads like this: (30 °C) -3.88 ± 0.2; (37 °C) -1.69 ± 0.17. The matching figures for CCCAAGCAAUAUUACGGGGG: -3.6 ± 0.13 and -3 ± 0.19. For CCCAAGCAAUAUUACGGUUU the same measures were -3.72 ± 0.12 and -2.92 ± 0.11.

For the sequence CCCAAGCAAUAUUACGUAUU, the “self-splicing fitness (ln)” value by setting is: (30 °C) -3.8 ± 0.16; (37 °C) -2.7 ± 0.17. For the sequence CCCAAGCAAUAUUACGUCGU, the “self-splicing fitness (ln)” value (30 °C) was -4.05 ± 0.2 and the “self-splicing fitness (ln)” value (37 °C) is -2.31 ± 0.15. For CCCAAGCAAUAUUACGUGAG the same measures were -2.48 ± 0.09 and -0.85 ± 0.08. For CCCAAGCAAUAUUACGUGGU the same measures were -3.27 ± 0.087 and -1.86 ± 0.084.

Regarding CCCAAGCAAUAUUACGUUGC, the “self-splicing fitness (ln)” value (30 °C) is -3.18 ± 0.25 and the “self-splicing fitness (ln)” value (37 °C) was -2.16 ± 0.21. The matching figures for CCCCAGCAAUAUUACGACCG: -4.12 ± 0.26 and -1.76 ± 0.34. For CCCCAGCAAUAUUACGACGC the same measures were -3.17 ± 0.25 and -3.22 ± 0.35. The matching figures for CCCCAGCAAUAUUACGACUU: -3.29 ± 0.13 and -3 ± 0.22.

On to CCCCAGCAAUAUUACGAGAC, for which the “self-splicing fitness (ln)” value reads like this: (30 °C) -3.9 ± 0.18; (37 °C) -2.37 ± 0.21. Take CCCCAGCAAUAUUACGAGAG: the “self-splicing fitness (ln)” value (30 °C) is -3.91 ± 0.23 and the “self-splicing fitness (ln)” value (37 °C) is -2.05 ± 0.17.

With CCCCAGCAAUAUUACGAGAU, the “self-splicing fitness (ln)” value runs as follows: (30 °C) -3.78 ± 0.17; (37 °C) -2.3 ± 0.2. As to CCCCAGCAAUAUUACGAGCG, the “self-splicing fitness (ln)” value is, setting by setting: (30 °C) -4.16 ± 0.24; (37 °C) -2.62 ± 0.23.

Consider CCCCAGCAAUAUUACGAUAU, for which the “self-splicing fitness (ln)” value reads like this: (30 °C) -3.52 ± 0.2; (37 °C) -1.58 ± 0.21. For CCCCAGCAAUAUUACGAUUA the same measures were -3.4 ± 0.2 and -2.87 ± 0.22.

On to CCCCAGCAAUAUUACGCACG, for which the “self-splicing fitness (ln)” value is -2.64 ± 0.11 (30 °C) and -2.2 ± 0.17 (37 °C). Consider CCCCAGCAAUAUUACGCGCC, for which the “self-splicing fitness (ln)” value (30 °C) is -3.19 ± 0.19 and the “self-splicing fitness (ln)” value (37 °C) is -3.17 ± 0.47. Take CCCCAGCAAUAUUACGCGCU: the “self-splicing fitness (ln)” value is, setting by setting: (30 °C) -3.31 ± 0.12; (37 °C) -2.45 ± 0.21. Consider CCCCAGCAAUAUUACGCGGG, for which the “self-splicing fitness (ln)” value (30 °C) is -4.19 ± 0.18 and the “self-splicing fitness (ln)” value (37 °C) was -3.1 ± 0.23. Take CCCCAGCAAUAUUACGCUAA: the “self-splicing fitness (ln)” value runs as follows: (30 °C) -3.55 ± 0.18; (37 °C) -3.2 ± 0.21. Consider CCCCAGCAAUAUUACGCUGA, for which the “self-splicing fitness (ln)” value by setting is: (30 °C) -3.97 ± 0.2; (37 °C) -2.42 ± 0.17.

As for CCCCAGCAAUAUUACGGAAA, the “self-splicing fitness (ln)” value runs as follows: (30 °C) -4.13 ± 0.34; (37 °C) -1.64 ± 0.16. CCCCAGCAAUAUUACGGAGC: the “self-splicing fitness (ln)” value by setting is: (30 °C) -3.08 ± 0.15; (37 °C) -2.83 ± 0.23. For the sequence CCCCAGCAAUAUUACGGAUG, the “self-splicing fitness (ln)” value is, setting by setting: (30 °C) -1.96 ± 0.064; (37 °C) -1.08 ± 0.067. Turning to CCCCAGCAAUAUUACGGCGC, the “self-splicing fitness (ln)” value is -3.41 ± 0.17 (30 °C) and -2.98 ± 0.24 (37 °C). CCCCAGCAAUAUUACGGCUC: the “self-splicing fitness (ln)” value (30 °C) is -3.43 ± 0.18 and the “self-splicing fitness (ln)” value (37 °C) is -2.75 ± 0.33. On to CCCCAGCAAUAUUACGGGAA, for which the “self-splicing fitness (ln)” value was -2.29 ± 0.096 (30 °C) and -1.64 ± 0.088 (37 °C). The matching figures for CCCCAGCAAUAUUACGGGAU: -3.28 ± 0.12 and -2.48 ± 0.14. Take CCCCAGCAAUAUUACGUAGG: the “self-splicing fitness (ln)” value is -3.78 ± 0.12 (30 °C) and -2.68 ± 0.15 (37 °C).
